Test results published in US20230303685A1 (ELECTRA THERAPEUTICS, published 2023).
Where a chain is given by its changes, count along the chain named. One block for each binder: values may come before it.

Key:
[1] = target: T1, human SIRPα V1-His monomer (human, UniProt P78324 31-373, limits assumed); assay: BLI (Octet); antibody on anti-mouse IgG capture tip, SIRP-His monomer at 100, 33.3, 11.1 nM, 1:1 fit, mean KD
T1 construct: 'SIRP-His monomer protein' of the Octet assay; also called SIRP-His; not shown: His tag
Description: (§1) Select SIRP antibodies were tested for their affinities to human SIRPα, SIRPβ1, and SIRPγ using a biolayer interferometry (BLI) Octet system (Pall ForteBio). Each SIRP antibody with rat or mouse Fc was immobilized on a biosensor tip by an anti-mouse IgG capture (AMC). Antibodies with human Fc were digested with gingipain K enzyme to yield monomeric F(ab′), biotinylated, then coated onto streptavidin biosensors. […] The biosensors were then exposed to wash buffer to measure off-rate kinetics. The resulting kinetic data were analyzed and fitted using a 1:1 binding model with kₒₙ and kdis fitted separately at each SIRP-His protein concentration. KD affinities were calculated as kdis to kₒₙ ratio at each concentration of SIRP-His and averaged.

human SIRPγ-His monomer [2] = target: T2, human SIRPγ-His monomer (human); assay: as above
T2 construct: 'SIRP-His monomer protein' of the Octet assay; also called SIRP-His; not shown: His tag
Description: as §1

Human SIRPβ1/DAP12 CHO = target: T3, Human SIRPβ1/DAP12 CHO; assay: flow cytometry, stably transfected CHO cells, antibody titrated, labelled anti-rat or anti-mouse IgG, MFI
T3 construct: also called human SIRPβ1 on CHO cells co-transfected with DAP12; copies: 1 + 2
T3 sequence (DAP12, as listed by the source limits assumed): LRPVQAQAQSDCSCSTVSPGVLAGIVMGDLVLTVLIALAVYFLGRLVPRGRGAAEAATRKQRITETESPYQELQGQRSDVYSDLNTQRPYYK
Description: (§2) Selected antibodies were tested for binding to stably transfected human SIRPα, SIRPβ1 (co-transfected with DAP12), or SIRPγ Chinese hamster ovary (CHO) cells via flow cytometry. A titration of SIRP antibodies was added to the cells and detected using a fluorescently labelled secondary antibody. Graph depicts the median fluorescence intensity (MFI) at each concentration.

Human SIRPγ CHO [3] = target: T4, Human SIRPγ CHO; assay: as above
T4 construct: also called human SIRPγ on CHO cells
T4 chain: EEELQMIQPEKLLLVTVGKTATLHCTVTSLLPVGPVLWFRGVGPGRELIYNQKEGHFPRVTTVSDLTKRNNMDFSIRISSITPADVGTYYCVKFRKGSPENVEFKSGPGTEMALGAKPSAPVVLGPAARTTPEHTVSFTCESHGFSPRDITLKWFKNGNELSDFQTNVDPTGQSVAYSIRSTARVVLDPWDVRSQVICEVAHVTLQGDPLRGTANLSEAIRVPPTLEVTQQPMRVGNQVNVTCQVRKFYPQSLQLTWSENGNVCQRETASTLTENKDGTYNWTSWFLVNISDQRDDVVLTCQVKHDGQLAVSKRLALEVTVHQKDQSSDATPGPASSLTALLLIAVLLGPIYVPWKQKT
Description: as §2

Human SIRPβ1 = target: T5, Human SIRPβ1; assay: ELISA, extracellular domain coated at 2 µg/mL, purified antibody titrated, anti-rat or anti-mouse IgG, chemiluminescence
T5 construct: also called human SIRPβ1 extracellular domain, plate-coated
T5 chain: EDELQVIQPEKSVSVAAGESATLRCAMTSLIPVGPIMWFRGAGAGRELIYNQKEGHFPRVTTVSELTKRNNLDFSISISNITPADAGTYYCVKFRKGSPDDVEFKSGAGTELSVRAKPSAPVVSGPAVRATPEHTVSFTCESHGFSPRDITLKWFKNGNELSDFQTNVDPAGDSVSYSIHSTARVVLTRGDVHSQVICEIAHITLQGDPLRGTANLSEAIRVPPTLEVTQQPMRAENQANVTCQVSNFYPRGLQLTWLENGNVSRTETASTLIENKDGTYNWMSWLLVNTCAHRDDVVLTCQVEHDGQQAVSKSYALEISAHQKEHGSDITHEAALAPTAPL
Description: (§3) Select SIRP antibodies were purified by Protein G from hybridoma supernatants and analyzed in a titration via ELISA. Briefly, 2 μg/mL of extracellular domain of each of the SIRPs was coated onto high protein-binding plates and blocked. Purified antibodies were added in a titration to the coated plates. The antibodies were detected by an anti-rat IgG or an anti-mouse IgG antibody and a chemiluminescent substrate.

Human SIRPγ [4] = target: T6, Human SIRPγ; assay: as above
T6 construct: also called human SIRPγ extracellular domain, plate-coated
T6 chain: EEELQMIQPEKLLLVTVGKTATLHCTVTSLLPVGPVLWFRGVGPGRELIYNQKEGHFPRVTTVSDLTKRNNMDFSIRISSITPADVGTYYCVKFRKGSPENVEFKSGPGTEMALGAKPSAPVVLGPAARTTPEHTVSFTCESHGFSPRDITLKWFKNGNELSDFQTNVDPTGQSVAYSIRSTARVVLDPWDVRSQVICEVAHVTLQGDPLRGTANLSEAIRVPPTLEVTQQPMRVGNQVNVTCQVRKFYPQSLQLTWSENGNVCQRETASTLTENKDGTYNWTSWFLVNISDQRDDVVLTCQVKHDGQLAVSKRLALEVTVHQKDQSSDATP
Description: as §3

[5] = target: T7, cynomolgus monkey SIRPα extracellular domain, monomeric (cynomolgus monkey, UniProt A0A2K5VYQ9 31-372); assay: as above
T7 construct: extracellular domain; also called Cyno SIRPα
Description: as §3

[6] = target: T8, Human SIRPγ conjugated to an Fc region (human); assay: BLI blocking; 200 nM antibody pre-incubated with 20 nM SIRPγ-Fc, binding to immobilised CD47-His (competitor), % of response of SIRPγ-Fc alone
T8 construct: also called SIRPγ-Fc; SIRP-Fc; not shown: Fc region

human SIRPβ1-His monomer = target: T9, human SIRPβ1-His monomer (human, UniProt O00241 30-371); assay: BLI (Octet); antibody on anti-mouse IgG capture tip, SIRP-His monomer at 100, 33.3, 11.1 nM, 1:1 fit, mean KD
T9 construct: 'SIRP-His monomer protein' of the Octet assay; also called SIRP-His; not shown: His tag
Description: as §1

[7] = target: T10, human SIRPα V1 extracellular domain, monomeric (human, UniProt P78324 31-373); assay: ELISA, extracellular domain coated at 1 µg/mL, purified antibody titrated, anti-rat IgG, chemiluminescence
T10 construct: also called hSIRPα V1
Description: as §3, with “1” for “2”, “SIRPα” for “of each of the SIRPs”, “IgG” for “IgG or an anti-mouse IgG”

human SIRPγ-His monomer [8] = target: T2, human SIRPγ-His monomer; assay: BLI (Octet); antibody on anti-mouse IgG capture tip, SIRP-His monomer; no dissociation seen in 600 s
Description: as §1

[9] = target: T10, human SIRPα V1 extracellular domain, …; assay: SPR (Biacore); antibody captured by anti-IgG on chip, monomeric SIRPα extracellular domain as analyte, 1:1 model
Description: (§4) Selected antibodies were tested for their affinities to two hSIRPα variants (V1 and V2), and to cynomolgus monkey (herein referred to as “cyno”) SIRPα. The affinities of these SIRP antibodies were determined using surface plasmon resonance. The SIRP antibodies were flowed onto a chip and captured by an anti-mouse IgG or an anti-human IgG covalently coupled to the surface of the chip. A three-point titration of the extracellular binding domain of hSIRPα was performed per the manufacturer's recommended protocols.

[10] = target: T7, cynomolgus monkey SIRPα extracellular …; assay: as above
Description: as §4

Human SIRPγ CHO [11] = target: T4, Human SIRPγ CHO; assay: flow cytometry, stably transfected CHO cells, antibody titrated, labelled anti-human IgG, MFI
Description: as §2

[12] = target: T11, human SIRPα V2 extracellular domain, monomeric (human, UniProt P78324 31-370); assay: SPR (Biacore); antibody captured by anti-IgG on chip, monomeric SIRPα extracellular domain as analyte, 1:1 model
T11 construct: also called hSIRPα V2
Description: as §4

Human SIRPγ [13] = target: T6, Human SIRPγ; assay: ELISA, extracellular domain coated at 1 µg/mL, purified antibody titrated, anti-human IgG, chemiluminescence
Description: as §3, with “1” for “2”, “SIRPα” for “of each of the SIRPs”, “IgG” for “IgG or an anti-mouse IgG”
(§5) FIGS. 3A-3C show binding curves of SIRP antibodies and two isotype controls with human Fc to human SIRPα V1, human SIRPβ1, human SIRPγ and cynomolgus monkey SIRPα by ELISA. […] Isotype control 1 was an unrelated human IgG1 antibody with irrelevant CDRs. Isotype control 2 was the same as isotype control 1 but contained the same amino acid substitutions in the Fc region as some of the selected SIRP antibodies for increased FcγR binding (referring to Table 11). DNA was transiently transfected into CHO cells for 7 days. Antibodies were purified by Protein A from cell supernatants and analyzed in a titration via ELISA as previously described in FIGS. 2A-2B using an anti-human IgG antibody as the detection antibody.

[14] = target: T10, human SIRPα V1 extracellular domain, …; assay: as above
Description: as §3, with “1” for “2”, “SIRPα” for “of each of the SIRPs”, “IgG” for “IgG or an anti-mouse IgG”
as §5

Kd [1]: 0.244 nM
Kd (human SIRPγ-His monomer [2]): 54.4 nM
binding result (Human SIRPβ1/DAP12 CHO): binds
EC50 (read off the curve) (Human SIRPγ CHO [3]): ~2 µg/mL
binding result (Human SIRPβ1): binds
EC50 (read off the curve) (Human SIRPγ [4]): ~0.2 µg/mL
EC50 (read off the curve) [5]: ~0.1 µg/mL
SIRPγ-CD47 Response (%) [6]: 129%
B1: Antibody 15 (antibody, V domains shown)
VH: QIQLVQSGPELKKPGETVKISCKGSGYTFRNFGMNWVKQAPGMGLKWMVWIDTNTGEPTYAEEFKGRFAFSLETSASTAYLQINNLKNEDTATYFCARSRGNYFAMEYWGQGTSVTVSS
VL: DIKMTQSPSSMYASLGERVTVTCKASQDINRYLSWFQQKPGKSPKTLIYRANRLVDGVPSRFSGSGSGQDYSLTISSLEYEDMGFYYCLQYDEFPFTFGSGTKLEIK
notes: Mouse variable region, mouse IgG2a Fc; from hybridoma

Kd [1]: 3.74 nM
Kd (human SIRPβ1-His monomer): 61.9 nM
Kd (human SIRPγ-His monomer [2]): 13.3 nM
binding result (Human SIRPβ1/DAP12 CHO): binds
binding result (Human SIRPγ CHO [3]): binds
EC50 (read off the curve) [7]: ~0.1 µg/mL
binding result (Human SIRPβ1): binds
binding result (Human SIRPγ [4]): binds
SIRPγ-CD47 Response (%) [6]: -3.8%
B2: Antibody 11 (antibody, V domains shown)
VH: EVQLVESGGGLVQPGGSLRLSCAASGFTFSSYWMHWVRQAPGKGLVWVSRIHNDGSRTSYADSVKGRFTISRDNAKNTLYLQMSSLRAEDTAVYYCTRDPPPYDILTGYPFDYWGQGTLVTVSS
VL: DIQMTQSPSSVSASVGDRVTITCRASQDISSWLAWFQQKPGKAPKLLIYGASSLQSGVPSRFSGSGSGTDFTLTISSLQPEDFATYYCQEANSFPYTFGQGTKLEIK
notes: Human variable region, rat IgG2b Fc; from hybridoma

Kd (human SIRPγ-His monomer [8]): < 0.001 nM
Kd [1]: 0.922 nM
Kd [9]: 12.6 nM
Kd [10]: 16.7 nM
SIRPγ-CD47 Response (%) [6]: 111%
B3: Antibody 13 (antibody, V domains shown)
VH: EVQMLESGGGLVQPGGSLRLSCAASGFTFSSYAMSWVRQAPGKGLEWVSAISGSGSSTHYADSVKGRFTISRDNSKNTLYLQMNSLRAEDTAVYYCAAYSGSYYYYGMDVWGQGTTVTVSS
VL: EIVMTQSPATLSVSPGERATLSCRASQSVSRNLAWYQQKSGQAPRLLIYGASTRATGIPARFSGSGSGTEFTLTISSLQSEDFAGYYCQQYNNWPYTFGQGTKLEIK
notes: as for B2

EC50 (read off the curve) (Human SIRPγ CHO [11]): ~0.7 µg/mL
Kd [9]: 11.4 nM
Kd [12]: 9.09 nM
Kd [10]: 12.6 nM
EC50 (read off the curve) (Human SIRPγ [13]): ~0.04 µg/mL
B4: Antibody 25 (antibody, V domains shown)
VH: B3 VH
VL: B3 VL
notes: Variable regions of Antibody 13

Kd [9]: 8.32 nM
Kd [12]: 10.3 nM
Kd [10]: 11.1 nM
EC50 (read off the curve) (Human SIRPγ [13]): ~0.05 µg/mL
EC50 (read off the curve) [14]: ~0.06 µg/mL
B5: Antibody 29 (antibody, V domains shown)
VH: B3 VH
VL: B3 VL

Kd (human SIRPγ-His monomer [8]): < 0.001 nM
Kd [1]: 5.31 nM
binding result (Human SIRPβ1/DAP12 CHO): binds
binding result (Human SIRPγ CHO [3]): binds
binding result (Human SIRPβ1): binds
binding result (Human SIRPγ [4]): binds
SIRPγ-CD47 Response (%) [6]: 120%
B6: Antibody 12 (antibody, V domains shown)
VH: B3 VH with M4V
VL: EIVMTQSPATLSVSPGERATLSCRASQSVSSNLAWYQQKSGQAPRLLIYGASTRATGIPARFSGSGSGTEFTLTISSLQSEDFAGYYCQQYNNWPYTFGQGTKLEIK
notes: as for B2
